# How the values were obtained:
# [1] = target: T1, Recombinant Human DLL4 (delta-like protein 4) (human, UniProt Q9NR61 27-524); assay: ELISA on plate-coated DLL4, 100 nM Fab
# T1 construct: Bought recombinant protein (R&D Systems Cat#1506-D4/CF); also called rHuman DLL4
# [2] = target: T1, Recombinant Human DLL4 (delta-like …); assay: ECL 96-well plate assay on immobilised DLL4, 10 nM Fab
Binder,ELISA signal [1],ECL signal [2]
"Fab VH1-46_IGHD6-6*01_IGHJ1*01 S102A/S103P/S104F/H111F G56H & L6_IGKJ1*01 (Fab, V domains shown, Fab from E. coli; CH1 (with His and Flag tags) and kappa CL come from the expression plasmids; also called APFF G56H) VH: QVQLVQSGAEVKKPGASVKVSCKASGYTFTSYYMHWVRQAPGQGLEWMGIINPSGHSTSYAQKFQGRVTMTRDTSTSTVYMELSSLRSEDTAVYYCAREEYAPFSAEYFQFWGQGTLVTVSS VL: not shown",0.65,68800
"Fab VH1-46_IGHD6-6*01_IGHJ1*01 S102A/S103P/S104F/H111F N52K & L6_IGKJ1*01 (Fab, V domains shown, Fab from E. coli; CH1 (with His and Flag tags) and kappa CL come from the expression plasmids; also called APFF N52K) VH: QVQLVQSGAEVKKPGASVKVSCKASGYTFTSYYMHWVRQAPGQGLEWMGIIKPSGGSTSYAQKFQGRVTMTRDTSTSTVYMELSSLRSEDTAVYYCAREEYAPFSAEYFQFWGQGTLVTVSS VL: not shown",0.45,67100
"Fab VH1-46_IGHD6-6*01_IGHJ1*01 S102A/S103P/S104F/H111F N52R & L6_IGKJ1*01 (Fab, V domains shown, Fab from E. coli; CH1 (with His and Flag tags) and kappa CL come from the expression plasmids; also called APFF N52R) VH: QVQLVQSGAEVKKPGASVKVSCKASGYTFTSYYMHWVRQAPGQGLEWMGIIRPSGGSTSYAQKFQGRVTMTRDTSTSTVYMELSSLRSEDTAVYYCAREEYAPFSAEYFQFWGQGTLVTVSS VL: not shown",0.01,21600
"Fab VH1-46_IGHD6-6*01_IGHJ1*01 S102A/S103P/S104F/H111F G56R & L6_IGKJ1*01 (Fab, V domains shown, Fab from E. coli; CH1 (with His and Flag tags) and kappa CL come from the expression plasmids; also called APFF G56R) VH: QVQLVQSGAEVKKPGASVKVSCKASGYTFTSYYMHWVRQAPGQGLEWMGIINPSGRSTSYAQKFQGRVTMTRDTSTSTVYMELSSLRSEDTAVYYCAREEYAPFSAEYFQFWGQGTLVTVSS VL: not shown",0.2,64300
"Fab VH1-46_IGHD6-6*01_IGHJ1*01 S102A/S103P/S104F/H111F G56T & L6_IGKJ1*01 (Fab, V domains shown, Fab from E. coli; CH1 (with His and Flag tags) and kappa CL come from the expression plasmids; also called APFF G56T) VH: QVQLVQSGAEVKKPGASVKVSCKASGYTFTSYYMHWVRQAPGQGLEWMGIINPSGTSTSYAQKFQGRVTMTRDTSTSTVYMELSSLRSEDTAVYYCAREEYAPFSAEYFQFWGQGTLVTVSS VL: not shown",0.2,60700
"Fab VH1-46_IGHD6-6*01_IGHJ1*01 S102A/S103P/S104F/H111F N52A & L6_IGKJ1*01 (Fab, V domains shown, Fab from E. coli; CH1 (with His and Flag tags) and kappa CL come from the expression plasmids; also called APFF N52A) VH: QVQLVQSGAEVKKPGASVKVSCKASGYTFTSYYMHWVRQAPGQGLEWMGIIAPSGGSTSYAQKFQGRVTMTRDTSTSTVYMELSSLRSEDTAVYYCAREEYAPFSAEYFQFWGQGTLVTVSS VL: not shown",0.12,52500
"Fab VH1-46_IGHD6-6*01_IGHJ1*01 S102A/S103P/S104F/H111F G56V & L6_IGKJ1*01 (Fab, V domains shown, Fab from E. coli; CH1 (with His and Flag tags) and kappa CL come from the expression plasmids; also called APFF G56V) VH: QVQLVQSGAEVKKPGASVKVSCKASGYTFTSYYMHWVRQAPGQGLEWMGIINPSGVSTSYAQKFQGRVTMTRDTSTSTVYMELSSLRSEDTAVYYCAREEYAPFSAEYFQFWGQGTLVTVSS VL: not shown",0.23,68600
"Fab VH1-46_IGHD6-6*01_IGHJ1*01 S102A/S103P/S104F/H111F G56K & L6_IGKJ1*01 (Fab, V domains shown, Fab from E. coli; CH1 (with His and Flag tags) and kappa CL come from the expression plasmids; also called APFF G56K) VH: QVQLVQSGAEVKKPGASVKVSCKASGYTFTSYYMHWVRQAPGQGLEWMGIINPSGKSTSYAQKFQGRVTMTRDTSTSTVYMELSSLRSEDTAVYYCAREEYAPFSAEYFQFWGQGTLVTVSS VL: not shown",0.19,66200
"Fab VH1-46_IGHD6-6*01_IGHJ1*01 S102A/S103P/S104F/H111F I51T/N52V & L6_IGKJ1*01 (Fab, V domains shown, Fab from E. coli; CH1 (with His and Flag tags) and kappa CL come from the expression plasmids; also called APFF I51T/N52V) VH: QVQLVQSGAEVKKPGASVKVSCKASGYTFTSYYMHWVRQAPGQGLEWMGITVPSGGSTSYAQKFQGRVTMTRDTSTSTVYMELSSLRSEDTAVYYCAREEYAPFSAEYFQFWGQGTLVTVSS VL: not shown",1.23,71700
"Fab VH1-46_IGHD6-6*01_IGHJ1*01 S102A/S103P/S104F/H111F N52L & L6_IGKJ1*01 (Fab, V domains shown, Fab from E. coli; CH1 (with His and Flag tags) and kappa CL come from the expression plasmids; also called APFF N52L) VH: QVQLVQSGAEVKKPGASVKVSCKASGYTFTSYYMHWVRQAPGQGLEWMGIILPSGGSTSYAQKFQGRVTMTRDTSTSTVYMELSSLRSEDTAVYYCAREEYAPFSAEYFQFWGQGTLVTVSS VL: not shown",1.06,75500
"Fab VH1-46_IGHD6-6*01_IGHJ1*01 S102A/S103P/S104F/H111F G56I & L6_IGKJ1*01 (Fab, V domains shown, Fab from E. coli; CH1 (with His and Flag tags) and kappa CL come from the expression plasmids; also called APFF G56I) VH: QVQLVQSGAEVKKPGASVKVSCKASGYTFTSYYMHWVRQAPGQGLEWMGIINPSGISTSYAQKFQGRVTMTRDTSTSTVYMELSSLRSEDTAVYYCAREEYAPFSAEYFQFWGQGTLVTVSS VL: not shown",0.23,77000
"Fab VH1-46_IGHD6-6*01_IGHJ1*01 S102A/S103P/S104F/H111F G56W & L6_IGKJ1*01 (Fab, V domains shown, Fab from E. coli; CH1 (with His and Flag tags) and kappa CL come from the expression plasmids; also called APFF G56W) VH: QVQLVQSGAEVKKPGASVKVSCKASGYTFTSYYMHWVRQAPGQGLEWMGIINPSGWSTSYAQKFQGRVTMTRDTSTSTVYMELSSLRSEDTAVYYCAREEYAPFSAEYFQFWGQGTLVTVSS VL: not shown",0.54,69600
